Here are results for eight molecules from patent US6942988 (Johns Hopkins, dated 2005).

Test [1] deals with T1, Ptc (patched receptor) of the cells of chicken intermediate neural plate explants. The experiment in a line: cell-based or functional assay.
Test [2] has as its target T1, Ptc (patched receptor) of the cells of …. In words: cell-based or functional assay. The source holds these as a separate data set.
In test [3] the target is T2, full-length mouse Ptc (patched receptor) (mouse, UniProt Q61115 1-1434).
T2 construct: whole, on cells; Predicted mass 159 kDa
T2 sequence (looked up): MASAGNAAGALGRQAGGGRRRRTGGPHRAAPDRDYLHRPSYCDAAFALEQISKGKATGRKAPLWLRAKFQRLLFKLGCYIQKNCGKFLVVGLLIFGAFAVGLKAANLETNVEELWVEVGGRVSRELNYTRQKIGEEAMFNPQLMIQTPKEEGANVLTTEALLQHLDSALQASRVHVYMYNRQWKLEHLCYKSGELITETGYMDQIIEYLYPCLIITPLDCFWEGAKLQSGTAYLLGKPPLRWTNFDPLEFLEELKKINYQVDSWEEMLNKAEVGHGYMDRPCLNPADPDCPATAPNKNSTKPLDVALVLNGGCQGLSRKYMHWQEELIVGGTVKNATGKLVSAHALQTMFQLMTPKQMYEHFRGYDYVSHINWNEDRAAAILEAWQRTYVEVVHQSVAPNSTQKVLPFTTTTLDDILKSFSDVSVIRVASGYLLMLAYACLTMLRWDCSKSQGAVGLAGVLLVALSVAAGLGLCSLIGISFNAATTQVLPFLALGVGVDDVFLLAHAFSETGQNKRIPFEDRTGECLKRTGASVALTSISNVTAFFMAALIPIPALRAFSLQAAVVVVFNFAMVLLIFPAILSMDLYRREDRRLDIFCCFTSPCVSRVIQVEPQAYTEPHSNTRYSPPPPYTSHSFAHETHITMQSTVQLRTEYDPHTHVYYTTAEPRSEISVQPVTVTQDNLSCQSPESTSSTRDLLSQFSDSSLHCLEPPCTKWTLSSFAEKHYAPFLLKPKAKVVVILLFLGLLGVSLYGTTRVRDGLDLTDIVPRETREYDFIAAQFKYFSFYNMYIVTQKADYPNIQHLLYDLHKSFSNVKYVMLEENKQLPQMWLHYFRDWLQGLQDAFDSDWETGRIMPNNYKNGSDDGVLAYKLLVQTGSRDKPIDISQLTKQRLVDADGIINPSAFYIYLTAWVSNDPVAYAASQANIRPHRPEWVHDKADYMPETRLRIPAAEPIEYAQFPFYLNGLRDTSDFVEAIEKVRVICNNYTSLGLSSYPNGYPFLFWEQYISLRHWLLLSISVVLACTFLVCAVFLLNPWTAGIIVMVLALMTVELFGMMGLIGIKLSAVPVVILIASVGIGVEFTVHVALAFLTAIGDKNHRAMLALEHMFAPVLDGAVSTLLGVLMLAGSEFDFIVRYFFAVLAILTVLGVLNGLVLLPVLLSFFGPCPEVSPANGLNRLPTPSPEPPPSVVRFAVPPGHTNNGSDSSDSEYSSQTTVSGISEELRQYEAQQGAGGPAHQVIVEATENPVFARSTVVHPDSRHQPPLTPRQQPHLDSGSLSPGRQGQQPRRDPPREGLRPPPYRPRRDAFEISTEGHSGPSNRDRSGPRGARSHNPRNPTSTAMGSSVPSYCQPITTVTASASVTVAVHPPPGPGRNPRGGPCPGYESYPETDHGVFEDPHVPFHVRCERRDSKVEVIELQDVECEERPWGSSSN
In words: competition of the disuccinimidyl suberate crosslinking of 32P-Shh-N to Ptc-expressing EcR-293 cells.

T1 sequence (Q90693 whole entry): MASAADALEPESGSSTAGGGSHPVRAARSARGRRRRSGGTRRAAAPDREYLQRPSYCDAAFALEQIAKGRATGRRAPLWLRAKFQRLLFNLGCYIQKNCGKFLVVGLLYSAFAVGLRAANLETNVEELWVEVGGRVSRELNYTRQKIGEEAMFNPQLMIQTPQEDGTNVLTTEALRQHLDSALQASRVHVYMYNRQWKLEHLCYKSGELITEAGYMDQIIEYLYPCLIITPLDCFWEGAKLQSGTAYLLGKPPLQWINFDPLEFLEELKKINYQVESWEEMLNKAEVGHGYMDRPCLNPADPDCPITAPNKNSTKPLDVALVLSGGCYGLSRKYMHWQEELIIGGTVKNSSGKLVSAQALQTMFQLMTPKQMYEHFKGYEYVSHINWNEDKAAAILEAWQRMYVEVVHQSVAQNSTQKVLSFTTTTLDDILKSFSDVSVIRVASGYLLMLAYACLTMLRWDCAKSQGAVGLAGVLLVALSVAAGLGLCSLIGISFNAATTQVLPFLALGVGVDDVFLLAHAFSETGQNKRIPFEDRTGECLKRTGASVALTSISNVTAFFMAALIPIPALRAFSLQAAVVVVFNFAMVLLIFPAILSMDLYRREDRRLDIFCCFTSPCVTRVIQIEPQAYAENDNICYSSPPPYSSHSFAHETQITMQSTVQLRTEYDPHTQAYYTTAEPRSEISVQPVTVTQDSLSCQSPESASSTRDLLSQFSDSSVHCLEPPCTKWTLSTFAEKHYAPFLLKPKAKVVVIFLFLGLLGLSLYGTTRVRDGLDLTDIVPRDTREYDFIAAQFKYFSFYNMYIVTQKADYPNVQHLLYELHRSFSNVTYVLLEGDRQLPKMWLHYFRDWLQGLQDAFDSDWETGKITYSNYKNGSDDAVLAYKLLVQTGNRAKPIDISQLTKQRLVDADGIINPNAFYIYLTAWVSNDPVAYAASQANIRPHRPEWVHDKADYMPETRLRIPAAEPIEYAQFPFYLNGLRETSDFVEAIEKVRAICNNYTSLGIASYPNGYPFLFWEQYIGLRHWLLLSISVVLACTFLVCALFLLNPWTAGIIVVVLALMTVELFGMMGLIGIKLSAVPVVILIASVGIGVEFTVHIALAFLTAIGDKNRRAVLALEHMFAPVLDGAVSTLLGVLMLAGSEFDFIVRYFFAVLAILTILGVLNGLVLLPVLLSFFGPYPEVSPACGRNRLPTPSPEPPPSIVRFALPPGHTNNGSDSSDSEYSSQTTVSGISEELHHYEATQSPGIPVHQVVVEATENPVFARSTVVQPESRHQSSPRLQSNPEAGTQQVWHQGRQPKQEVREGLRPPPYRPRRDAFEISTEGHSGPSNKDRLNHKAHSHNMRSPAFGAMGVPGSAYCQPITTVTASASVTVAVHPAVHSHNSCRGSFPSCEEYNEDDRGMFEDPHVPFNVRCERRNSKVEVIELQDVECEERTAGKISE

B1: Shh-N SA altered protein (K75A, E76A, Y81A, D105A, N116A, E189A, K195A) (ligand)
chain: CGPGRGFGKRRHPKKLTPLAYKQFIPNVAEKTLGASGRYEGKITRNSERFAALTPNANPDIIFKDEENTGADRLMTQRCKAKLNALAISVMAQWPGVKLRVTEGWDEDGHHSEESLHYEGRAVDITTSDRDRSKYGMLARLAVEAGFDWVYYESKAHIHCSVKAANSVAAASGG
With B1, in test [1], the “HNF-3β induction, nM (minimum concentration for uniform induction, chicken neural plate explants)” value (“HNF-3β induction, nM” below) is no more than 20 nM and the “Pax-7 repression, nM (minimum concentration for complete repression, chicken neural plate explants)” value (“Pax-7 repression, nM” below) is roughly 4 nM.

B2: Shh-N SF protein (R154A, S157A) (ligand)
chain: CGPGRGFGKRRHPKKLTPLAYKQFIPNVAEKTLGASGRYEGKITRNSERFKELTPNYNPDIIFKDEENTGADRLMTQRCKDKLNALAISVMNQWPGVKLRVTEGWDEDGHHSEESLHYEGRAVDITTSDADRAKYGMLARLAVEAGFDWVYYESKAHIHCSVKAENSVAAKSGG
Consider B2, for which, in test [1], the “HNF-3β induction, nM” value is no less than 100 nM and the “Pax-7 repression, nM” value is roughly 70 nM.

B3: Shh-N SD altered protein (E90A, D132A, E138A) (ligand)
chain: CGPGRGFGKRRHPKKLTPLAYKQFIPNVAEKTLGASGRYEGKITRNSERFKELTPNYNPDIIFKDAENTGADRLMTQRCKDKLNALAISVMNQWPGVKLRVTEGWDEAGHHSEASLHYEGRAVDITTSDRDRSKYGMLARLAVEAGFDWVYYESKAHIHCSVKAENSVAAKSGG
For the molecule B3, in test [1], the “HNF-3β induction, nM” value is no less than 20 nM and the “Pax-7 repression, nM” value is roughly 10 nM. In test [2], the “reduction in neural plate signaling activity against wild type” value was roughly 2.5 fold.

B4: Shh-N SE protein (P42A, K46A) (ligand)
chain: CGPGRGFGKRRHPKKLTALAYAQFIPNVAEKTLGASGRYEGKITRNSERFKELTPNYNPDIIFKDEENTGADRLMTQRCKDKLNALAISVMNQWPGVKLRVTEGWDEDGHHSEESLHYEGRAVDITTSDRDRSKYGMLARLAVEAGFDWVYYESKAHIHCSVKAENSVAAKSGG
As for B4, in test [1], the “HNF-3β induction, nM” value is roughly 100 nM and the “Pax-7 repression, nM” value is roughly 20 nM.

B5: Shh-N H135A, E177A double mutant (EH) protein (ligand)
chain: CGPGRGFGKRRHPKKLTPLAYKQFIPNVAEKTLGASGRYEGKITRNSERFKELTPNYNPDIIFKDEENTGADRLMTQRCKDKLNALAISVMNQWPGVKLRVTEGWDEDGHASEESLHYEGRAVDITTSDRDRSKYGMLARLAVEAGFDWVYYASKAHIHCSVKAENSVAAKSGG
B5: in test [1], the “HNF-3β induction, nM” value was no less than 20 nM and the “Pax-7 repression, nM” value was roughly 10 nM.

B6: Shh-N SB altered protein (N51A, V52A, T56A, E168A) (ligand)
chain: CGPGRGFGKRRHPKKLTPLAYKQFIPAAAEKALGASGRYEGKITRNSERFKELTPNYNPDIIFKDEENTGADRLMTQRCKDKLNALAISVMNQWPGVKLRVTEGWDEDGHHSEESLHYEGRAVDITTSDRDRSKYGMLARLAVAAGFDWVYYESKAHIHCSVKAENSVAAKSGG
On to B6, for which, in test [1], the “HNF-3β induction, nM” value is no less than 20 nM and the “Pax-7 repression, nM” value is roughly 4 nM.

B7: Shh-N SG protein (S178A, K179A) (ligand)
chain: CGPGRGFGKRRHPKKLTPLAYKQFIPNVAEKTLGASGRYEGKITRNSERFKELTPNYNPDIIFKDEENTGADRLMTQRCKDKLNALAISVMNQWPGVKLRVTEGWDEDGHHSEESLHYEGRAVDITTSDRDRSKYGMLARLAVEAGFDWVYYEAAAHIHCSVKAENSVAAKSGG
In the case of B7, in test [1], the “HNF-3β induction, nM” value was roughly 100 nM and the “Pax-7 repression, nM” value is roughly 30 nM.

B8: Shh-N SC mutant protein (P42A, K46A, R154A, S157A, S178A, K179A) (ligand)
chain: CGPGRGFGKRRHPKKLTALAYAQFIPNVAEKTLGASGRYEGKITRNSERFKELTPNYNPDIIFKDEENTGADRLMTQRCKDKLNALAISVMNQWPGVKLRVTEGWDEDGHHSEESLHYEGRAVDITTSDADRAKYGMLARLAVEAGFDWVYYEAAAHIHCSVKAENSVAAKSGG
notes: Limits of the entry not visible; also called SC altered protein
Turning to B8, in test [1], the “HNF-3β induction, nM” value was greater than 1000 nM and the “Pax-7 repression, nM” value is greater than 1000 nM. In test [3], the binding result is “no binding”.
